Measurements published in FireProtDB (doi:10.1006/jmbi.2000.3958).

B1: Cyclin-dependent kinases regulatory subunit, P08463 (parent)
chain: MSKSGVPRLLTASERERLEPFIDQIHYSPRYADDEYEYRHVMLPKAMLKAIPTDYFNPETGTLRILQEEEWRGLGITQSLGWEMYEVHVPEPHILLFKREKDYQMKFSQQRGG

Variants of: B1
Conditions: Schizosaccharomyces pombe (strain 972 / ATCC 24843); pH 7.5; 25 °C; Urea; Fluorescence; Tris 50 mM; structure 1SCE; whole UniProt chain shown

| Variant | ddG of mutation (higher = less stable) | denaturant m value | denaturant midpoint (higher = more stable) |
| --- | --- | --- | --- |
| MSKSGVARLLTASERERLEPFIDQIHYSPRYADDEYEYRHVMLPKAMLKAIPTDYFNPETGTLRILQEEEWRGLGITQSLGWEMYEVHVPEPHILLFKREKDYQMKFSQQRGG [P7A] | 0.2 kcal/mol | 1.57 kcal/mol/M | 4.29 M |
| MSKSGVPRLLTASERERLEAFIDQIHYSPRYADDEYEYRHVMLPKAMLKAIPTDYFNPETGTLRILQEEEWRGLGITQSLGWEMYEVHVPEPHILLFKREKDYQMKFSQQRGG [P20A] | 0.3 kcal/mol | 1.5 kcal/mol/M | 4.23 M |
| MSKSGVPRLLTASERERLEPFIDQIHYAPRYADDEYEYRHVMLPKAMLKAIPTDYFNPETGTLRILQEEEWRGLGITQSLGWEMYEVHVPEPHILLFKREKDYQMKFSQQRGG [S28A] | 0.34 kcal/mol | 1.61 kcal/mol/M | 4.21 M |
| MSKSGVPRLLTASERERLEPFIDQIHYGPRYADDEYEYRHVMLPKAMLKAIPTDYFNPETGTLRILQEEEWRGLGITQSLGWEMYEVHVPEPHILLFKREKDYQMKFSQQRGG [S28G] | -0.89 kcal/mol | 1.62 kcal/mol/M | 4.98 M |
| MSKSGVPRLLTASERERLEPFIDQIHYSARYADDEYEYRHVMLPKAMLKAIPTDYFNPETGTLRILQEEEWRGLGITQSLGWEMYEVHVPEPHILLFKREKDYQMKFSQQRGG [P29A] | -0.23 kcal/mol | 1.39 kcal/mol/M | 4.56 M |
| MSKSGVPRLLTASERERLEPFIDQIHYSPRYADDEYEYRHVMLAKAMLKAIPTDYFNPETGTLRILQEEEWRGLGITQSLGWEMYEVHVPEPHILLFKREKDYQMKFSQQRGG [P44A] | 3.04 kcal/mol | 1.56 kcal/mol/M | 2.52 M |
| MSKSGVPRLLTASERERLEPFIDQIHYSPRYADDEYEYRHVMLPKAMLKAIATDYFNPETGTLRILQEEEWRGLGITQSLGWEMYEVHVPEPHILLFKREKDYQMKFSQQRGG [P52A] | 2.57 kcal/mol | 1.75 kcal/mol/M | 2.81 M |
| MSKSGVPRLLTASERERLEPFIDQIHYSPRYADDEYEYRHVMLPKAMLKAIPTDYFNPETGTLRILQEEEWRGLGITQSLGWEMYEVHAPEPHILLFKREKDYQMKFSQQRGG [V89A] | 0.24 kcal/mol | 1.6 kcal/mol/M | 4.27 M |
| MSKSGVPRLLTASERERLEPFIDQIHYSPRYADDEYEYRHVMLPKAMLKAIPTDYFNPETGTLRILQEEEWRGLGITQSLGWEMYEVHGPEPHILLFKREKDYQMKFSQQRGG [V89G] | -0.81 kcal/mol | 1.63 kcal/mol/M | 4.93 M |
| MSKSGVPRLLTASERERLEPFIDQIHYSPRYADDEYEYRHVMLPKAMLKAIPTDYFNPETGTLRILQEEEWRGLGITQSLGWEMYEVHVAEAHILLFKREKDYQMKFSQQRGG [P90A P92A] | -0.93 kcal/mol | 1.4 kcal/mol/M | 5 M |
| MSKSGVPRLLTASERERLEPFIDQIHYSPRYADDEYEYRHVMLPKAMLKAIPTDYFNPETGTLRILQEEEWRGLGITQSLGWEMYEVHVGEPHILLFKREKDYQMKFSQQRGG [P90G] | -1.33 kcal/mol | 1.53 kcal/mol/M | 5.25 M |
| MSKSGVPRLLTASERERLEPFIDQIHYSPRYADDEYEYRHVMLPKAMLKAIPTDYFNPETGTLRILQEEEWRGLGITQSLGWEMYEVHVGEGHILLFKREKDYQMKFSQQRGG [P90G P92G] | -0.88 kcal/mol | 1.46 kcal/mol/M | 4.97 M |
| MSKSGVPRLLTASERERLEPFIDQIHYSPRYADDEYEYRHVMLPKAMLKAIPTDYFNPETGTLRILQEEEWRGLGITQSLGWEMYEVHVPEAHILLFKREKDYQMKFSQQRGG [P92A] | -0.07 kcal/mol | 1.78 kcal/mol/M | 4.46 M |
| MSKSGVPRLLTASERERLEPFIDQIHYSPRYADDEYEYRHVMLPKAMLKAIPTDYFNPETGTLRILQEEEWRGLGITQSLGWEMYEVHVPEGHILLFKREKDYQMKFSQQRGG [P92G] | -0.07 kcal/mol | 1.55 kcal/mol/M | 4.46 M |
